Results published in patent publication EP4417623A1 (Fundació Institut de Recerca Contra la Leucèmia Josep …, dated 2024).
Where no end group is shown, it is not given here.

Columns and labels:
[1] = target: T1, CCR9 peptide #1 MADDYGSESTSSMEDYVNFNF-C (human, extra C-terminal Cys for BSA conjugation (coated as non-conjugated or BSA-conjugated peptide)); test: ELISA screening against the immunisation peptide
T1 construct: This is the immunisation peptide; It was conjugated to BSA for the ELISA screenings; also called MADDY peptide; complete antigen peptide
T1 peptide: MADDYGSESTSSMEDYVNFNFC

Peptide 4: SMEDYVNFNF-C = target: T2, Peptide 4: SMEDYVNFNF-C (not fully specified; printed as SMEDYVNFNF-C); test: peptide ELISA titration, OD450
T2 peptide: SMEDYVNFNFC

Peptide 3: SSMEDYVNFN-C = target: T3, Peptide 3: SSMEDYVNFN-C (not fully specified; printed as SSMEDYVNFN-C); test: peptide ELISA titration, OD450
T3 peptide: SSMEDYVNFNC

Measured: binding result

B1: anti-CCR9 antibody clone 115 (antibody, V domains shown)
VH: QVQLKQSGPELVKPGTSVRVSCTASGYSFTDYIIYWVKQSHGRSLEWIGYIDPNNYNTRYSQKFKGKATLTVDKSSTSAFMHLNSLTSDDSAVYYCARDVYWGQGTTLTVSS
VL: DVVMTQTPLSLTVSLGDQASISCRSSQSLVHSNGKTYLQWYLQKPGQSPKLLIYKVSNRFSGVPDRFSGSGSGTDFTLKISRVEAEDLGVYFCAQSTHVWTFGGGTKLEIKR
notes: Murine monoclonal antibody, isotype IgG1; It was tested as hybridoma supernatant in the FACS screening and as Protein A/G purified antibody in the ELISA
binds: [1] | Peptide 4: SMEDYVNFNF-C | Peptide 3: SSMEDYVNFN-C
